# Assay results as given in patent publication US20250092426, “CAS ENDONUCLEASES AND RELATED METHODS” (Flagship Pioneering Innovations VII, LLC, published 2025).
# T1: CasEnd-7 (synthetic construct)
# T1 chain: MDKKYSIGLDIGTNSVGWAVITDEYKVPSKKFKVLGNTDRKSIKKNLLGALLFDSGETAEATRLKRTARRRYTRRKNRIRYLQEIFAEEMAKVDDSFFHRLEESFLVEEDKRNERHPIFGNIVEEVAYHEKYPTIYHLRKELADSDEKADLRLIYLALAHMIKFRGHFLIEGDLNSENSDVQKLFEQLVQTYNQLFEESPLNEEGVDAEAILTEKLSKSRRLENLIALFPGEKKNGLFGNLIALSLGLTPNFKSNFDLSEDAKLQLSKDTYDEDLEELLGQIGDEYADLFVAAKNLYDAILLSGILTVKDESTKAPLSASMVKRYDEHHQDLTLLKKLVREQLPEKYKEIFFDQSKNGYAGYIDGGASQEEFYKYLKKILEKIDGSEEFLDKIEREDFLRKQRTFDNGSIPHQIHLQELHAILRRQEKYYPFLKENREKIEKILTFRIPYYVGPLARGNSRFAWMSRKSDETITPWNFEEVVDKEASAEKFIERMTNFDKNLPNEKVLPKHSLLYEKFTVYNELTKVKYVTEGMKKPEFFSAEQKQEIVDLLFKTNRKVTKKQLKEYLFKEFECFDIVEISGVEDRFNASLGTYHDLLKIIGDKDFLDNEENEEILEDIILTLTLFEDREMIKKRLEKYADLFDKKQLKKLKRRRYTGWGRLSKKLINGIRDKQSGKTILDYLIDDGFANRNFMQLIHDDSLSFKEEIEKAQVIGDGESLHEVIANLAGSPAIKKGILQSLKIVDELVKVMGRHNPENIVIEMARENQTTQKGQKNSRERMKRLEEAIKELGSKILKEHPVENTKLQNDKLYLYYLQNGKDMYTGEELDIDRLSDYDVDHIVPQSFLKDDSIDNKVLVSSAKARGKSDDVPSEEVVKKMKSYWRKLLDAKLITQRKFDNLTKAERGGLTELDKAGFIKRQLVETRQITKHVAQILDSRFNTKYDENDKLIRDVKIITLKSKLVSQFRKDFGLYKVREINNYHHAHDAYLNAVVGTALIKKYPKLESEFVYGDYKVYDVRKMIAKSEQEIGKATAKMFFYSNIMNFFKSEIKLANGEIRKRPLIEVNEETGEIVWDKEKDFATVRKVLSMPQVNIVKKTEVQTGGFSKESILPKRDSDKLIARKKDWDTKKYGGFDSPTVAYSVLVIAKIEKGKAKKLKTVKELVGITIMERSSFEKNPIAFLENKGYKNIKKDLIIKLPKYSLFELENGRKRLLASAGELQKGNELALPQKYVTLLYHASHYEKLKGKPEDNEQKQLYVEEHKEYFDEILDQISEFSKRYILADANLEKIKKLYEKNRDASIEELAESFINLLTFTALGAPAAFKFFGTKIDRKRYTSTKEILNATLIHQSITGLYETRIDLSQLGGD
# Biological target: T1, CasEnd-7
# Test: cell_activity; +++; HEK293T; PAM not stated
# In short: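 Editing activity was scored as the fraction of GFP+ cells on day 4 by flow cytometry. BFP-expressing HEK293T cells (250,000) received by nucleofection 200 ng plasmid for the RT-Cas fusion protein and 200 ng template RNA plasmid designed to convert BFP to GFP.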
binder,measurement,value
BFP-to-GFP template RNA ; BFP reporter protospacer (ssRNA ; dsDNA) RNA: GCCGAAGCACUGCACGCCGUGUUUUAGAGCUAGAAAUAGCAAGUUAAAAUAAGGCUAGUCCGUUAUCAACUUGAAAAAGUGGCACCGAGUCGGUGCACCCUGACGUACGGCGUGCAGUGCUU DNA 1: GCCGAAGCACTGCACGCCGT DNA 2: ACGGCGTGCAGTGCTTCGGC,activity,≥ 100 % of reference
